Data set [1] concerns Plasmodium berghei Apical Membrane Antigen 1 (PbAMA1).
For data set [2], the system named is Plasmodium berghei Merozoite Surface Protein 1, 42 kDa form (PbMSP1-42).

With “Plasmodium berghei subtilisin-like protease SUB2 (PbSUB2), TrimycDuoXpress (TmDX) epitope-tagged, as expressed in WT-TmDX1 and SPA-TmDX1 recombinant parasites”, the ratio of HSP70-corrected PbAMA1-CT15 maturation product, SPA-TmDX1 (PbSUB2 over-expressing) versus WT-TmDX1 merozoite extracts, Western blot, 6.5 x 10^7 parasites (fold (ratio of corrected amounts)) in data set [1] worked out at 9.7. Besides, in data set [2], the ratio of HSP70-corrected PbMSP1-19 maturation product, SPA-TmDX1 (PbSUB2 over-expressing) versus WT-TmDX1 merozoite extracts, Western blot, 1.3 x 10^6 parasites (fold (ratio of corrected amounts)) turned out to be 2.9; the ratio of HSP70-corrected PbMSP1-19 maturation product, SPA-TmDX1 (PbSUB2 over-expressing) versus WT-TmDX1 merozoite extracts, Western blot, 6.5 x 10^6 parasites (fold (ratio of corrected amounts)) is 2.5; the ratio of HSP70-corrected PbMSP1-19 maturation product, SPA-TmDX1 (PbSUB2 over-expressing) versus WT-TmDX1 merozoite extracts, Western blot, 13 x 10^6 parasites (fold (ratio of corrected amounts)) was 2.1.

The values above are taken from patent US20070014817.
